How the values were obtained:
ERα [1] = test: Uterine ERα protein (western blot), prolonged tamoxifen model; type: in vivo, mouse
Experimental: (§1) DXR damage was evaluated in 7 weeks ICR female mice following treatment for superovulation with pregnant mares' serum (PMSG, 7 IU) SC on day 0 and human chorionic gonadotropin (hCG, […]) SC on day 2. On day 1, mice were administered with DXR (6 mg/kg) or saline (control) IV. Mice ovaries were retrieved on day 3 (FIG. 1A). The ability of rPEDF to overcome the destructive effect of DXR 7 weeks ICR female mice were treated with DXR (6 mg/kg) or saline (control) IV on day 0, rPEDF (2 mg/kg) or TRIS (control) was administered SC on day 1, followed by induction for superovulation with PMSG (7 IU) SC on day 4 and hCG (7 IU) SC on day 6. Mice ovaries were retrieved on day 7 (FIG. 2A). […] Mice uteri were excised at day 7. […] Mice treated with tamoxifen alone served as control. […] Mice treated with tamoxifen alone served as control.
(§2) Samples were homogenized in cold lysis buffer (20 mM HEPES, 150 mM NaCl and 0.2% Igepal; sigma) and centrifuged at 12,000 rpm, for 15 min, at 4° C.). Proteins were separated by sodium dodecyl sulfate polyacrylamide gel electrophoresis (SDS-PAGE; 10%; Bio-Rad, Israel). […] Approximate molecular masses were determined by comparison with the migration of pre-stained protein standards (Bio-Rad). […] Intensity of the protein bands was quantified by Image J […] (NIH).

VEGF [2] = test: Uterine VEGF protein (western blot), sub-acute tamoxifen model; type: in vivo, mouse; conditions: rPEDF 10 mg/kg SC with tamoxifen 2.5 μg/mouse daily for 7 days
Experimental: as §1, §2

AKT [3] = test: Uterine AKT phosphorylation (western blot), sub-acute tamoxifen model; type: in vivo, mouse; conditions: 7 days
Experimental: as §1, §2

ERα [4] = test: Uterine ERα mRNA (qPCR), sub-acute tamoxifen model; type: in vivo, mouse; conditions: sub-acute tamoxifen model
ERα [5] = test: Uterine ERα mRNA (qPCR), prolonged tamoxifen model; type: in vivo, mouse; conditions: prolonged tamoxifen model
GPX-1 = GPX-1 mRNA level (qPCR) in LH-15 cells under H2O2; type: cell-based, rat; conditions: rPEDF 1 nM added to H2O2
Experimental: (§3) Rat granulosa cell line LH-15 [Suh et al. J Cell Biol (1992) 119: 439-450] was cultured in hormone-free DMEM-F12 medium, supplemented with penicillin (100 IU/ml; Biological Industries), streptomycin ([…]; Biological Industries) and 10% charcoal-stripped fetal bovine serum (CS-FBS; Invitrogen) (culture medium), as described previously (Breckwoldt et al. 1996, Sasson & Amsterdam 2002). Cells were serum-starved for 16 hours (0.1% CS-FBS) prior to and during recombinant PEDF (rPEDF) stimulation or incubated in 2% CS-FBS during H2O2 stimulation.
(§4) Total RNA was isolated from various tissues (ovaries, eyes) or from granulosa cells, using Trizol reagent (Invitrogen) according to manufacturer's instructions, and quantified with the Nano-Drop spectrophotometer (ND-1000; Thermo Scientific). First-strand cDNA was produced by RT (Maxima™ Reverse transcriptase, Thermo Scientific) from a total of 1 μg RNA, using oligo-dt primers (Thermo Scientific). DNA was amplified using 1 μl RT reaction and 50 pmol gene-specific primers in ReadyMix™ mixture (Sigma). […] Changes in the level of expression of mRNA were detected by SYBR green reagent (SYBR® Green PCR Master Mix, ABI, Carlsbad, Calif., USA) along with 15 ng cDNA and specific primers, on a StepOnePlus Real-Time PCR System (Applied Biosystems, Foster City, Calif., USA).

OVX ICR mice = test: Uterine weight, prolonged tamoxifen model in ovariectomized mice; type: in vivo, mouse
Experimental: as §1
(§5) At the end of each experiment, uteri were isolated, excised and weighed.

SOD-1 = SOD-1 mRNA level (qPCR) in LH-15 cells under H2O2; type: cell-based, rat; conditions: rPEDF 1 nM added to H2O2
Experimental: as §3, §4

CD34 = CD34 immunohistochemical staining of uterine blood vessels, prolonged tamoxifen model; type: in vivo, mouse; conditions: prolonged treatment
Experimental: as §1
Paraffin-embedded sections were deparaffinized, microwave heated while being subjected to an antigen retrieval agent (H-3300, Vector Laboratories Inc., Burlingame, Calif., USA), cooled on ice to room temperature, rinsed in PBS, incubated for 1 hour with PBSTg (0.2% Tween and gelatin in PBS), washed with PBS, blocked for 10 minutes in blocking solution (Cell Marque Corporation, Calif., USA) and incubated overnight with anti PNPLA2 or anti-CD34 primary antibodies. […]

AKT [6] = test: AKT phosphorylation (western blot) in serum-starved LH-15 cells; type: cell-based, rat; conditions: 1 nM rPEDF, various durations, P<0.05
Experimental: as §3
(§6) Samples were homogenized in cold lysis buffer (20 mM HEPES, 150 mM NaCl and 0.2% Igepal; sigma) and centrifuged at 12,000 rpm, for 15 min, at 4° C.). Proteins were separated by sodium dodecyl sulfate polyacrylamide gel electrophoresis (SDS-PAGE; 10%; Bio-Rad, Israel). Separated proteins were transferred onto nitrocellulose membranes (Whatman GmbH, Germany) in a mini tank transfer unit (TE 22, Amersham, UK). Approximate molecular masses were determined by comparison with the migration of pre-stained protein standards (Bio-Rad). Blots were blocked for 1 hour in TBST (10 mM Tris-HCl, pH=8.0, 150 mM NaCl, 0.05% Tween 20) containing 5% skim-milk (Alba, N.Y., USA) followed by an over-night incubation at 4° C. with primary antibodies. […] Intensity of the protein bands was quantified by Image J […] (NIH).

LH-15 cells = test: MTT cell viability assay in LH-15 granulosa cells under H2O2; type: cell-based, rat; conditions: rPEDF 1 nM or 5 nM with 100 or 200 μM H2O2, 24 hours
Experimental: as §3
Equal amount of LH-15 cells were seeded onto 6-well plates to a final volume of 500 μl. Following treatments, each well was incubated for 30 minutes with 10 μl of MTT [3-(4, 5-Dimethylthiazol-2-yl)-2, 5-diphenyltetrazolium bromide; 5 mg/ml] followed by an additional 2-4 hours incubation period at 37° C. The reaction was terminated by addition of 110 μl HCl (0.07 M in isopropanol) and OD 560 nm was measured by the SpectraMax 190 microplate reader ([…], Eugene, Oreg., USA).

ICR female mice = test: Number of ovulated oocytes in DXR-treated mice given rPEDF; type: in vivo, mouse; conditions: rPEDF 2 mg/kg SC the day after DXR 6 mg/kg IV; vs DXR alone
Experimental: FIG. 2A is an illustration depicting the experimental setting: 7 weeks ICR female mice (n=4/group) were treated with DXR or saline (control), at the day after mice were administrated with rPEDF or TRIS (control). On the fourth day of the experiment mice were induced for superovulation with the standard PMSG/hCG protocol [Ben-Aharon et al. Reproductive Biology and Endocrinology: RB&E (2010) 8: 20]. Mice were sacrificed 16-17 hours after hCG administration.
DXR damage was evaluated in 7 weeks ICR female mice following treatment for superovulation with pregnant mares' serum (PMSG, 7 IU) SC on day 0 and human chorionic gonadotropin (hCG, […]) SC on day 2. On day 1, mice were administered with DXR (6 mg/kg) or saline (control) IV. Mice ovaries were retrieved on day 3 (FIG. 1A). The ability of rPEDF to overcome the destructive effect of DXR 7 weeks ICR female mice were treated with DXR (6 mg/kg) or saline (control) IV on day 0, rPEDF (2 mg/kg) or TRIS (control) was administered SC on day 1, followed by induction for superovulation with PMSG (7 IU) SC on day 4 and hCG (7 IU) SC on day 6. […]
cumulus-enclosed oocytes were isolated from the oviductal ampullae into M2 medium (Sigma), 16-18 hrs after hCG administration. Cumulus cells were removed by a brief exposure to 400 IU/ml hyaluronidase (Sigma) and the number of ovulated oocytes was counted under binocular.

BAX = BAX protein level (western blot) in LH-15 cells under H2O2; type: cell-based, rat; conditions: exogenous rPEDF added to H2O2; P<0.05
Experimental: as §3, §6

JNK = test: Uterine JNK phosphorylation (western blot), sub-acute tamoxifen model; type: in vivo, mouse; conditions: 7 days
Experimental: as §1, §2

[7] = test system: progesterone receptor (PR); test: Uterine PR mRNA (qPCR), prolonged tamoxifen model; type: in vivo, mouse; conditions: tamoxifen models taken together
Experimental: DXR damage was evaluated in 7 weeks ICR female mice following treatment for superovulation with pregnant mares' serum (PMSG, 7 IU) SC on day 0 and human chorionic gonadotropin (hCG, […]) SC on day 2. On day 1, mice were administered with DXR (6 mg/kg) or saline (control) IV. Mice ovaries were retrieved on day 3 (FIG. 1A). The ability of rPEDF to overcome the destructive effect of DXR 7 weeks ICR female mice were treated with DXR (6 mg/kg) or saline (control) IV on day 0, rPEDF (2 mg/kg) or TRIS (control) was administered SC on day 1, followed by induction for superovulation with PMSG (7 IU) SC on day 4 and hCG (7 IU) SC on day 6. Mice ovaries were retrieved on day 7 (FIG. 2A). […] Mice uteri were excised at day 7. […] Mice treated with tamoxifen alone served as control. […]
as §4, with “First-strand cDNA was produced by RT (Maxima™ Reverse transcriptase, Thermo Scientific) from a total of 1 μg RNA, using oligo-dt primers (Thermo Scientific).” left out

[8] = test system: ovariectomized (OVX) ICR mice; test: Uterine weight, sub-acute tamoxifen model in ovariectomized mice; type: in vivo, mouse; conditions: rPEDF 10 mg/kg SC with tamoxifen 2.5 μg/mouse daily for 7 days
Experimental: as §1, §5

ERβ = test: Uterine ERβ mRNA (qPCR), prolonged tamoxifen model; type: in vivo, mouse; conditions: tamoxifen models taken together
VEGF [9] = test: Uterine VEGF protein (western blot), prolonged tamoxifen model; type: in vivo, mouse; conditions: rPEDF 2 mg/kg SC once every 3 days from day 8 of one-month tamoxifen treatment
Experimental: as §1, §2

B1: rPEDF: Human recombinant PEDF (NM_002615.4, SEQ ID NO: 1) expressed in E. coli BL21, purified on Ni-NTA His-Bind resin (protein, UniProt P36955 20-418, looked up)
Pigment epithelium-derived …: QNPASPPEEGSPDPDSTGALVEEEDPFFKVPVNKLAAAVSNFGYDLYRVRSSTSPTTNVLLSPLSVATALSALSLGAEQRTESIIHRALYYDLISSPDIHGTYKELLDTVTAPQKNLKSASRIVFEKKLRIKSSFVAPLEKSYGTRPRVLTGNPRLDLQEINNWVQAQMKGKLARSTKEIPDEISILLLGVAHFKGQWVTKFDSRKTSLEDFYLDEERTVRVPMMSDPKAVLRYGLDSDLSCKIAQLPLTGSMSIIFFLPLKVTQNLTLIEESLTSEFIHDIDRELKTVQAVLTVPKLKLSYEGEVTKSLQEMKLQSLFDSPDFSKITGKPIKLTQVEHRAGFEWNEDGAGTTPSPGLQPAHLTFPLDYHLNQPFIFVLRDTDTGALLFIGKILDPRGP
modifications: His tag
- ERα protein expression in uteri, rPEDF with tamoxifen (ERα [1]): down-regulate the expression of ERα protein
- uterine VEGF protein levels, tamoxifen+rPEDF vs tamoxifen alone (VEGF [2]): significant decrease
- uterine AKT phosphorylation, tamoxifen+rPEDF vs tamoxifen alone (AKT [3]): significant decrease in phosphorylation of AKT
- ERα mRNA levels in uteri, rPEDF with tamoxifen (ERα [4]): able to attenuate the sub-acute tamoxifen-induced reduction in ERα mRNA levels
- ERα mRNA levels in uteri, rPEDF with tamoxifen (ERα [5]): able to reverse the prolonged tamoxifen-induced reduction in ERα mRNA levels
- GPX-1 mRNA expression under H2O2 (GPX-1): elevated their expression
- effectiveness of rPEDF treatment by timing of administration (OVX ICR mice; preliminary analysis, data not shown, prolonged tamoxifen model): more effective when administered following a short period of initiation with tamoxifen
- uterine weights, tamoxifen+rPEDF vs tamoxifen alone (OVX ICR mice; rPEDF 2 mg/kg SC once every 3 days from day 8 of one-month tamoxifen treatment): down-regulated in mice treated with tamoxifen+rPEDF, though not statistically significant (p=0.2)
- SOD-1 mRNA expression under H2O2 (SOD-1): elevated their expression
- CD34 staining in uteri, tamoxifen+rPEDF vs tamoxifen alone (CD34): decrease in CD34 staining
- phosphorylation of AKT (AKT [6]): induced prolonged, time-dependent phosphorylation of AKT starting at 5 minutes
- cells viability (MTT) under H2O2 (LH-15 cells): significantly (P<0.05) decreased H2O2-induced reduction in cells viability
- number of ovulated oocytes (ICR female mice): significantly (P<0.05) decreased DXR-induced reduction in number of ovulated oocytes
- BAX expression under H2O2 (BAX): decreased its expression
- uterine JNK phosphorylation, tamoxifen+rPEDF vs tamoxifen alone (JNK): increase in phosphorylation of JNK
- PR expression in uteri, rPEDF with tamoxifen [7]: without modifying the expression
- uterine weight, tamoxifen+rPEDF vs tamoxifen alone [8]: significant decrease
- ERβ expression in uteri, rPEDF with tamoxifen (ERβ): without modifying the expression
- uterine VEGF protein expression, tamoxifen+rPEDF vs tamoxifen alone (VEGF [9]): significantly decreased
